According to PMC4201148:

Columns and labels:
[1] = target: YFPn-SpvC (Salmonella enterica subsp. enterica serovar Typhimurium strain 14028s) (UniProt P0A2M9); test: split reporter (BiFC, NanoBiT); BiFC with YFPn and YFPc fusions co-expressed in Arabidopsis epidermal cells by particle bombardment together with p35S-mCherry; fluorescence observed 24-48 h after transformation by confocal microscopy; YFP-positive cells counted among mCherry-positive cells
[2] = target: YFPc-SpvC (Salmonella enterica subsp. enterica serovar Typhimurium strain 14028s) (UniProt P0A2M9); test: as above

| Substance | percent of transformed cells with reconstituted YFP [1] | percent of transformed cells with reconstituted YFP [2] |
| --- | --- | --- |
| YFPc-MPK6 (from UniProt Q39026 1-395) (transformed cells) | 34% | – |
| YFPn-MPK6 (from UniProt Q39026 1-395) | – | 18% |
